Experimental data taken from paper PMC3753651.

Assays:
[1] = target: GFP-mRev1 (not stated (label mRev1)) (UniProt Q920Q2); test: co-IP
[2] = target: GFP-Polη (UniProt Q9Y253); test: co-IP

PCNA-Ub:PCNA precipitation ratio [1]: 8.5 | PCNA-Ub:PCNA precipitation ratio [2]: 3.5
Substance: PCNA-Ub (C-terminal fusion of ubiquitin to PCNA-K164R) (from UniProt P12004 1-261; P0CG48 1-76)
